Target: leukocyte function antigen (LFA-1) on THP-1 cells (human) (UniProt P20701)
Assay: cell-based or functional assay

Sequence of leukocyte function antigen (LFA-1) on THP-1 cells (human) (P20701 26-1170, chain 1 of 2): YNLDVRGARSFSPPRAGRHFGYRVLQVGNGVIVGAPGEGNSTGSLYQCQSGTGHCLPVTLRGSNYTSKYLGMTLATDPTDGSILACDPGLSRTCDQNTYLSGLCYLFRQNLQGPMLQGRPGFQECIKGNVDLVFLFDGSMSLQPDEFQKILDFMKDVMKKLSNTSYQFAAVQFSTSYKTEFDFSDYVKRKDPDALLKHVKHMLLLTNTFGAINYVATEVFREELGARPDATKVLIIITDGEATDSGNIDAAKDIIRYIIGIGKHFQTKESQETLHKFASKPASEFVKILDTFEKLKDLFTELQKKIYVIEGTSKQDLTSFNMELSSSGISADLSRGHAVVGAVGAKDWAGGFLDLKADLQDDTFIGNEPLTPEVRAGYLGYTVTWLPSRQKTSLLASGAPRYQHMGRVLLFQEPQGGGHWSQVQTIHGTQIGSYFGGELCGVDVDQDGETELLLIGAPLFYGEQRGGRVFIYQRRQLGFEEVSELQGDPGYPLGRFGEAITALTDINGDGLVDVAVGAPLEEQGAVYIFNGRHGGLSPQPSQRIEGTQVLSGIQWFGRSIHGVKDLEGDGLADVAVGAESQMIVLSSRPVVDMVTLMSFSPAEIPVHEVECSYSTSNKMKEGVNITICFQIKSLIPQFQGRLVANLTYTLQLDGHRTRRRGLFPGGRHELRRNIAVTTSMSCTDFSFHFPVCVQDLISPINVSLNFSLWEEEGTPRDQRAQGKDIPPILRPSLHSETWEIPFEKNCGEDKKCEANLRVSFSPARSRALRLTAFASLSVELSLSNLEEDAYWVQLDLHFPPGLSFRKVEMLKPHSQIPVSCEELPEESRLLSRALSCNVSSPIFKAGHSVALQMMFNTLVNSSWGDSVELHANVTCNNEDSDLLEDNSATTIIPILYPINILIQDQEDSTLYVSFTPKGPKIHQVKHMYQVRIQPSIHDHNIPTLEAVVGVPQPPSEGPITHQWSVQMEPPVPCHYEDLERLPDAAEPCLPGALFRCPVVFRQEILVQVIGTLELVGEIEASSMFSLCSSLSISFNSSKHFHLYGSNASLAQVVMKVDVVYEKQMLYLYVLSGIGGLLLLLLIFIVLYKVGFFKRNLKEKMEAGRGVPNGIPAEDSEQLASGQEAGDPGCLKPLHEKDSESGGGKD
Sequence of leukocyte function antigen (LFA-1) on THP-1 cells (human) (P05107 23-769, chain 2 of 2, further chain): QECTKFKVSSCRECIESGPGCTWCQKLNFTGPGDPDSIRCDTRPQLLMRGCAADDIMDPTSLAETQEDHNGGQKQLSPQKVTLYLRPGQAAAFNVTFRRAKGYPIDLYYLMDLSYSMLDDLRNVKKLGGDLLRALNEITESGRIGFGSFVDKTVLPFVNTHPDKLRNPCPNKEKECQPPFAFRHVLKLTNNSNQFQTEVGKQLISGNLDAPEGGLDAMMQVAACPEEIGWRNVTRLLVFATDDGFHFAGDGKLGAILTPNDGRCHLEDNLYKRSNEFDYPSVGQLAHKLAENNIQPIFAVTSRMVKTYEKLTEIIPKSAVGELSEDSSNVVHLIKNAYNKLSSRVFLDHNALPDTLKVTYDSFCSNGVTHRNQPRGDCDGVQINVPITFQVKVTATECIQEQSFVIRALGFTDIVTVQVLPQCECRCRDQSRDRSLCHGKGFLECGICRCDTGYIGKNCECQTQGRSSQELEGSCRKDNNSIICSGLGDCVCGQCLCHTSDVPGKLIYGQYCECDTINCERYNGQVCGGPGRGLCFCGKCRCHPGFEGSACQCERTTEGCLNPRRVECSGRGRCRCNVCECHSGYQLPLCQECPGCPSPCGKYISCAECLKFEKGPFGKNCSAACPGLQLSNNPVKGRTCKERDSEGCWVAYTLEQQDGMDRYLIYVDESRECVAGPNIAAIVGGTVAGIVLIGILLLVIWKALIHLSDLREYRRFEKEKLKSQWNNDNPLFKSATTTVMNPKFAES

Substance: Leukotoxin (LtxA) polypeptide isolated from Aggregatibacter actinomycetemcomitans (from UniProt P16462 1-1055)
- 10%-maximal effective concentration (EC10), calculated from an in vitro model using THP-1 cells: 0.02 µg/mL

— patent US20250319154A1
